Measured values published in patent publication US20160053277A1, “Compositions Having Dicamba Decarboxylase Activity and Methods of Use” (PIONEER HI-BRED INTERNATIONAL, INC., priority 2013, published 2016).

Legend:
[1] = 14C assay with IPTG-induced recombinant E. coli cells: 14CO2 captured from [14C]-carboxyl-labeled dicamba; conditions: for Enzymatic Detection level: dicamba decarboxylation activity of the protein of the given SEQ ID NO, High / Low / No; for Dicamba Decarboxylase Activity: induced recombinant E. coli cells, [14C]-carboxyl-labeled dicamba, 14CO2 capture
[2] = Saturation mutagenesis of SEQ ID NO:109: dicamba decarboxylation activity of point mutants (carbon dioxide released); conditions: decarboxylation activity (carbon dioxide released) of point mutant compared with unmutated backbone protein; backbone SEQ ID NO: 109
[3] = Shuffled variant libraries: 14CO2 capturing assay in 384-well format; conditions: decarboxylation activity (carbon dioxide released) compared with unmutated backbone protein SEQ ID NO 133 (DDEC0201)

Molecule	Enzymatic Detection level [1]	Dicamba Decarboxylase Activity [1]	Fold Activity [2]	Fold Activity [3]
27 (protein, listed as Aspergillus oryzae) MALGKIALEEAFALPRFEEKTRWWASLFSTDAETHVKEITDINKIRIEHADKHGVGYQILSYTAPGVQDIWDPVEAQALAVEINDYIAEQVRVNPDRFGAFATLSMHNPKEAADELRRCVEKYGFKGALVNDTQRAGPDGDDMIFYDNADWDIFWQTCTELDVPFYMHPRNPTGTIYEKLWADRKWLVGPPLSFAHGVSLHVLGMVTNGVFDRHPKLQIIMGHLGEHVPFDMWRINHWFEDRKKLLGLAETCKKTIRDYFAENIWITTSGHFSTTTLNFCMAEVGSDRILFSIDYPFETFSDACEWFDNAELNGTDRLKIGRENAKKLFKLDSYKDSSA	No	No	1	–
17 (protein, Aspergillus niger) MARGKIALEEAFEVKGMDEEIDAQAALYIAPKDVERYKRQIVSITDERLQLSDQNGIGYSILSLTVPGIQGITDKDKAEKRARDVNNYIHDQIKDHRDRLGAFAALSMHDPRQAGHELRRCVKELGFHGALLNDVQHTGEGDDDQPLFYDQPDYDEFWRVAVELDVPVYLHPAAPLRDTLIYKQSYEDRKYLVGPPQSYCNGVALHLMGIIVNGVFDRFPNLKVIVGHMGERIPFDFWRMDHWVKGVTRPLAEKNGDTVCQKEPLYYFKRNIYITTSGHFSTQNLRYLYEWLGDERMMFSVDFPYERMEHGCQWYDDDAEKIKEALGGRDGYLRVGRDNARRLFKLTKFKDCDAV	Low	Low	1.8	–
24 (protein, Aspergillus niger) MALGKVVLEEAYERPNMKEKSNHEAGLYIAPNDRPRYMRQINDINQERLKLADAHGVGYTIISLTVPGIQGIFDKTEAERVATETNNWAAEQIKNHRDRLGAFACLSMHDPAQAANELRRCVQELGFHGALLCSFQHAGPDGETYLFYDQPKYDVFWKALTELDVPLYIHPAAPTGSILERLYAQRPALIGPPLSFANDVSLHTLGIISNGVFDRFPNLKIIIGHLGEHIPFDFWRIDHWFRDVKKPIADEEGRVMAQKSLYHYFKHNIWLTTSGHFSTPTLKYVVNEIGVDRVLFSVDYPYETTESGCNWWDHDKDAIVEAVGGVDNYYAIGRENAKKLLRLDKFHDSDAR	Low	Low	1.6	–
123 (protein, Dicamba decarboxylase variant clone: S03902153) MAQGKVALEEHFAIPETLQDSAGFVPGDYWKELQHRLLDIQDTRLKLMDAHGIETMILSLAAPAVQAIPDRRKAIEIARRANDVLAEECAKRPDRFLAFAALPLQDPDAATEELQRCVNDLGFVGALVNGFSQEGDGQTPLYYDLPQYRPFWGEVEKLDVPFYLHPRNPLPQDSRIYDGHPWLLGPTWAFAQETAVHALRLMASGLFDEHPRLNIILGHMGEGLPYMMWRIDHRVAWVKLPPRYPAKRRFMDYFNENFHITTSGNFRTQTLIDAILEIGADRILFSTDWPFENIDHASDWFNATSIAEADRVKIGRTNARRLFKLDGA	High	–	1.3	–
276 (protein, Dicamba decarboxylase variant) MAQGKVALEEHFAIPETLQDSAGFVPGDYWKELQHRLLDIQDTRLKLMDAHGIETMILSLAAPAVQAIPDRRKAIEIARRANDLLAEECAKRPDRFLAFAALPMQDPDAATEELQRCVNDLGFVGALVNGFSQEGDGQTPLYYDLPQYRPFWGEVEKLDVPFYLHPRNPLPQDSRIYDGHPWLLGPTWAFAQETAVHALRLMASGLFDEHPRLNIILGHMGEGLPYMMYRIDHRIAWVKLPPRYPAKRRFMDYFNENFHITTSGNFRTQTLIDAILEIGADRILFSTDWPFENIDHAADWFNATSIAEADRVKIGRTNARRLFKLDGA	–	–	–	1.0
274 (protein, Dicamba decarboxylase variant) MAQGKVALEEHFAIPETLQDSAGFVPGDYWKELQHRLLDIQDTRLKLMDAHGIETMILSLAAPAVQAIPDRRKAIEIARRANDFLAEECAKRPDRFLAFAALPMQDVDAATEELQRCVNDLGFVGALVNGFSVEGDGQTPLYYDLPQYRPFWGEVEKLDVPFYLHPRNPLPQDSRIYDGHPWLLGPTWAFAQETAVHALRLMASGLFDEHPRLNIILGHLGEGLPYMMYRIDHRIAWVKLPPRYPAKRRFMDYFNENFHITTSGNFRTQTLIDAILEIGADRILFSTDWPFENIDHAADWFNATSIAEADRVKIGRTNARRLFKLDLD	–	–	–	1.0
275 (protein, Dicamba decarboxylase variant) MAQGKVALEEHFAIPETLQDSAGFVPGDYWKELQHRLLDIQDTRLKLMDAHGIETMVLSLAAPAVQAIPDRRKAIEIARRANDMLAEECAKRPDRFLAFAALPLQDPDAATEELQRCVNDLGFVGALVNGFSQEGDGQTPLYYDLPQYRPFWGEVEKLDVPFYLHPRNPLPQDSRIYDGHPWLLGPTWAFAQETAVHALRLMASGLFDEHPRLNIILGHMGEGLPYMMYRIDHRIAWVHEPPRYPAKRRFMDYFNENFHITTSGNFRTQTLIDAILEIGADRILFSTDWPFENIDHAAAWFNATSIAEADRVKIGRTNARRLFKLDGA	–	–	–	1.0
278 (protein, Dicamba decarboxylase variant) MAQGKVALEEHFAIPETLQDSAGFVPGDYWKELQHRLLDIQDTRLKLMDAHGIETMILSLAAPAVQAIPDRRKAIEIARRANDFLAEECAKRPDRFLAFAALPLQDPDAATEELQRCVNDLGFVGALVNGFSQEGDGQTPLYYDLPQYRPFWGEVEKLDVPFYLHPRNPLPQDSRIYDGHPWLLGPTWAFAQETAVHALRLMASGLFDEHPRLNIILGHMGEGLPYMMYRIDHRIAWVHEPPRYPAKRRFMDYFNENFHITTSGNFRTQTLIDAILEIGADRILFSTDWPFENIDHAAAWFNATSIAEADRLKIGRTNARRLFKLDGA	–	–	–	1.2
277 (protein, Dicamba decarboxylase variant) MAQGKVALEEHFAIPETLQDSAGFVPGDYWKELQHRLLDIQDTRLKLMDKHGIETMILSLAAPAVQAIPDRRKAIEIARRANDMLAEECAKRPDRFLAFAALPLQDPDAATEELQRCVNDLGFVGALVNGFSQEGDGQTPLYYDLPQYRPFWGEVEKLDVPFYLHPRNPLPQDSRIYDGHPWLLGPTWAFAQETAVHALRLMASGLFDERPRLNIILGHMGEGLPYMMYRIDHRIAWVHEPPRYPAKRRFMDYFNENFHITTSGNFRTQTLIDAILEIGADRILFSTDWPFENIDHATAWFNATSIAEADRVKIGRTNARRLFKLDGA	–	–	–	0.9
18 (protein, listed as Legionella pneumophila) MAIVDFETHFITEACIDYLTQRQEVPKLVPELNGAYTMCFTPDVSLFHTSALMEELLSLNEQRLAIMDQAGVTIQVLSLTTINGIDSCPGDENKSTALAREVNDQLYSAIQKHPERFKGFASISPYDVKEGVKELERAISQLGFVGWLTHSNFGQDNYLDDKIYWPLLEAAESLNIPIYLHPNVPIMREFGKYGFALGGSALGFEFDTALCLMRMILGGVFDAFPKLKIMLGHLGETMPFLMERLDHLYRIPDLKPYRPSIQRIPSEVLRQNVYITTSGRFFVPALRYVLEVMGEDRVLFASDYPMESLLDATRFIQDSDLSNQTKQKIFSINAKNLNLI	Low	Low	1.2	–
20 (protein, listed as Legionella pneumophila) MAIVDFETHFITEACIDYLTQRQEVPKLVPDLNGAYTMCFTPDVSLFHTSALMEELLSLNEQRLAIMDQAGVTIQVLSLTTINGIDSCPGDENKSTALAREVNDQLYSAIQRHPERFKGFASISPYDVKEGVKELERAISQLGFVGWLTHSNFGQDNYLDDKTYWPLLEAAEGLNIPIYLHPNVPIMREFGKYGFALGGSALGFEFDTALCLMRMILGGVFDAFPKLKIMLGHLGETMPFLMERLDHLYRIPDLKAYRPSIQRIPSEVLRQNVYITTSGRFFVPALRYVLEVMGEDRVLFASDYPMESLLDATRFIQDSDLSNQTKQKIFSINAKNLNLI	Low	Low	1.8	–
15 (protein, listed as Metarhizium anisopliae) MAQEIAKSHETSTRFAGFAVLPMRDPEAAAKELERAVKKLGFVGALVDHKTAHGNGFCEGNEYDVLWRKAEQLAVPIYLHPSWPTEKQFQQAYAGNYSPTAAGTIGGAMFNWHSEVGHHVLRLYAAGVFDKFPKLKIIIGHFGEMIPYMLDRIREQDHRLGKTGRTFSEVYDENIWITTSGVWSLDPMRCILANTKIDHILYSVDYPFTMNERGLEWFQELEKSGLLSEEDLALIAYKNCEKLLGVKAPTQD	Low	Low	1	–
23 (protein, listed as Aplysina aerophoba) MAIDIDARSQPGLETARRAMSRRDFLGGAAAFGITAAATTALPASTAAGEEEDLFLLGLEEHFATAELRRLNGIQFPQGTPRFDINDVGAGRIADMDAAGIDIQVLSALTPGAQNLPGAEGVAYARRLNSWVAHEVIPAYPGRFRAFATLPLSEPQAAADELEYAVRELGFLGCMTYGAVDGKFLDHADFVPVLARAETLDVPIYIHPNWASPQVMDTYYNGLGNEWVSRVLSGAGYGWHQEVALQCLRMIASGVFDRFPRLQIIVGHMGEGLPFFYWRFGDDLARITADTLEKPVQQYFHDNFWITTSAFFRDELLRLVLSVMGEDRVMFAVDYPFVSNKVGADWFRAVDLPRNVKEKIAHKNAERLLKIGPF	Low	Low	1.5	–
25 (protein, listed as Acidovorax avenae) MAQGKIGLEEHFAIPETLQDSAGFVPGDYWKELSLRLLDIHERRLREMDENGMEMMILSLNAPAVQAIPDTKKAVEIAVRANDFLAEQVARRPDRFQAFAALPMQDPDLATRELERCMQDLGFRGALVNGFSQVGTPENVVYYDAPQYGDFWAAVERLDAPFYLHPRNPIASWAQIYQGHPWLMGPTWAFAQETAVHALRLMASGLFDRHPGLRIILGHLGEGLPYNMWRVDHRNAWVDMPKGYPAKRKLCDYFHENFYLTTSGNFRTQTLIDALLEVGADRILFSTDWPFENVDHAAHWFDDAAISEADRLKIGRTNALSLFKLPQG	Low	Low	1	–
